Results: the domain aggregation screens of Martell et al. (2025)

Experiment: soluble fraction after stress (log2 fold change); higher = more stays soluble; pooled small domains, quantitative proteomics
Conditions: stress: 75 degC
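Also: 20 min heating vs room temperature control held 20 min.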

Sequence | soluble fraction (log2)
HMANKLTSTNLAKQHKMGLSEMYAELMNSGYLIEKDGKYELTPLGISIGGESKPNRYKKGEFYFLWPSDIS | -0.618
HMPTPRVPMSKQRQILQLLQDGHLSTREIAAALHISKTSVGDIAKAARLAGLDWEAASKLSDEELSARIYK | -0.36
HMSATIMVLRASEDIPVGTEIKDNHLTTVEVGSYGLPEGAINDKDTVLGKVAQTNIIKGDYFFPQKLGG | 0.339
HMVVGYRYVTNVANAVNFRQKPSASSTIITTIPYGTRIGYVEDANSEYARVKYDNMYGYVAKFYLSNYSPP | -3.68
HMKPVTNHTVKFYVDDVLWKTVTVKHGGNVRLADLPMSDGKTFVGWSESVVNVTKDLTVFALFS | -1.96
HMAVPLVRGTVTSSVGTVLLLSVGERDFFLSEGEEKDGVLLQSLSEKSAVVVVSGRAYTLSL | -4.42
HMVTTTEAAKMLLVNAGHDVIKDGLTGASWASNTMKLADADGLLASVATKPNDALPRQYAAQMIYN | 0.103
HMEKEYMKNVVGMEYRQARVLLGDMGLELAFQPVYETSDKYPTDVVVSTEPAADQPLTKGQTVILHIST | -0.332
HMDNPYEVFIPNSYIGQRLDQTLASLFPQFSRSRLQNWLASGNLLVNGKIVKPKTKILGGEQINILDPYN | -0.608
HMDSKPNDLLFVYVSQLIRSLTLNSSKKDSELADELEVSISQIRIWLKKLINEQLIVKESKPVKYRWKG | -2.84
HMSGPVITEERNIANALISGLANMKETPTREQVERKAQQIAELFGYTGDLRNIITEAMISVDT | -0.0406
HMIVEIVPSALHGERVDRIVAFILDVSRSVASGLVERGAVHVDGSVETSGKVRLVEGQEVSVDPSQVPG | -0.69
HMNALVAKYKQGVTEEQQQGQGIIIIKRVVVRDQEAWVYEKKIFDWGGVSYFRDKQRITASTFNQETAL | -2.79
HMEDLDKIISAYLDENPQIVSDYGKGNKKAVNSAIGFVMKSTGGKYSSSDIVDAVRSMIVSISV | -0.667
HMTTYSVDLGDIRAVADSDGKLVELTLHAAVTTHYSHSELADRLNLAFTALREEAQADYETRY | 0.223
HMAEVDREEALRIALAHAAVARRDVRNLKIERGEENGVPVYKVEFETAFGDFDVAVSRRSGDVVDAD | -0.0382
HMTSIISLAKARSIALQKVPGATSKNIHLSLDDEDDKQVYEGEIKYKQMEYVFEIDAKTGTFLKWTSERD | -1.92
HMDSIDIDAETKSLGPNAPQIIKGIKEWGQGLVAKGVWSDQDFEEFKVFAATANGINALNKVRKFY | -0.037
HMQDEREEIAVEDVVGMPLWQARKVIADQGFRVLDDGAGDIVIAQMPSGGGKLIEGGQVMLYTYTD | 0.687

Sequence | soluble fraction (log2)
HMEQFDFTILRELRKRAGLSIGEVSAESGVSAAVISKLERNRTRAELDTLYRLARVFGITAAELLNLAEA | -2.19
HMEQVVFNGTGRRKSSIARVRIMSGKGNITVNGKALDEYFGEETLKVIVRQPLTVTDTLDKYDVIATVK | 0.0911
HMSTRLIGEIGVVTKDLGAGLKENGSIQIGREEWPAETKDMEHIPMGTRVKVIHIEGTRLVVEA | -0.561
HMSLAVFLQGLLEEKQLKKADVIRRTGMEPTYGYHIFDGHKKHPARSKVLLLALAMGLTVKEAQHLLYYAG | -0.423
HMTETIPVSERLFRYLFEEKGKRVQKIQQTSHARVRMERSPYSVVVSGTKDAVEAAMESLKATEKELLEA | -0.161
HMYNNGYVNSDRVNFRKGASTNSDIYKVLDKNTSVTILDYEGDWSKVKINDTVGYVYTKYITAG | -0.368
HMLAKRYLVYGSGSLNSAYPDTKNIAYGIDSGKGFFLVGILTENEASKLKLKGYYVIEDFPLDFH | -1.45
HMPLDYNELRSISPKAARQAILQILAANKGNVSATAKLLGVSRKTVYKAMHKKASGNLDDTSRAPK | -1.74
HMTISAQAITPRLEVIKNFVLMEEWDAAQTQLEKLRSFTEIWSLDPLFSAMKKKDGQKISDWITGFIKDNM | -2.39
HMDDLFGNAIEMFNNQRYDMTYELLVQLLSETPNNEKAWQLLADTKFMLGDYDDALHIVGKAAK | -1.05
HMSQRITYTEFVQMVKDDKVEKVEVGANQYNITPKSDDKTLVKMTYYTGFIKDENLLDLLNKHKVEIDGYI | -0.792
HMLTAPMPGIVTEILVKEGQRVRSGQPLMILEAMKMEHQVTAPKSGQIEKIYFSEGEKVDMGSDLLSIS | 0.5
HMEITTLTGVLGAGRLDSALAAALPQYSRARIQALISDAALRINGQVVADAGSKKMSGQTFELNIPAPVP | -0.594
HMDPLADLFSRIRNAQMRNKKVVTSPASKLRAGILEVLAKEGYIRGYAMTQHASGKNELDIELN | -1.05
HMAPMYGEFENVRLTDAQLDKLNARFPPEQVQREIEALSGYMRSKGKRYADHYATLLNWLRRDFPP | -0.238
HMNNLKTKELSKIGYTNDKARSLVISIIPKHFKYHSKSEIIELLTNIKNKPEDYVSDEILGKIAETFMEKI | -1.23
HMSENIQLQKEQLYQLIAQLPEQRQKIFRLHKIDNYSYQEISDFTGLSRKTIANHIYLAHQFILKKVKK | -3.76
HMGGPRDVPYSTFLIEVEKGQVAEVTIQDHKITGTYKNSNEPFITNAPDDPDLVSRLIKYGVGVQAKPPE | 0.0896
HMRESRLFQILYQLLTKKKVTAANLAKQFEVSVRTIYRDIDALSSSGIPIYASQGKNGGIQLDEDF | -0.992
